Measurements from patent US20230331827A1, “POTASSIUM CHANNEL INHIBITORS” (priority 2017, published 2023).
Residue numbers refer to the chain shown, from its start.

Tests used:
human Kv1.3 (huKv1.3) = biological target: T1, human Kv1.3 (huKv1.3) (Homo sapiens, UniProt P22001); experiment: QPatch automated patch-clamp, CHO cells stably expressing human Kv1.3 (Examples 19-21); type: cell-based; settings: huKv1.3, four-point curves of FIG. 32, Table E19; read-out: IC50
T1 construct: host or cells: CHO
Protocol: The effect of these KnotBodies on cells expressing human Kv1.3 (huKv1.3) channel was assessed using the QPatch automated patch-clamp platform (Sophion, Ballerup, Denmark). For the testing of Kv1.3 ion channel currents, CHO cells stably expressing human Kv1.3 (GenBank accession number NM_002232.2; cell line catalogue number CT6133, Charles River Discovery, Cleveland, USA) were subjected to a QPatch electrophysiology assay in the presence or absence of the KnotBody fusions or the antibody isotypes (negative controls). Internal and external physiological solutions were freshly prepared prior to the assay. The extracellular solution contained 145 mM NaCl, 4 mM KC1, 2 mM CaC12, 1 mM MgC12, 10 mM HEPES and 10 mM glucose; the pH was adjusted to 7.4 with NaOH; the osmolarity was ~ 305 mOsm/L. The intracellular solution contained: KF (120 mM), KC1 (20 mM), HEPES (10 mM) EGTA (10 mM); the pH was adjusted to 7.2 with KOH; osmolarity was ~ 300 mOsm/L.
(§1) A series of depolarising voltage (channel activating) pulses were used to monitor the channel currents upon adding control (extracellular solution) to define a control baseline of current activity. To these measured control currents four, ascending concentrations of KnotBodies (including KB_A12_ShK and KB_A12_KTX as previously described in Example 8) or parental antibody isotypes (control molecules) were applied to the external bathing solution. KnotBodies KB_A12 and KB_A07 (EETI-II fusions) were used as isotype controls for the testing. From a holding voltage of -80 mV a depolarising, activating voltage pulses of +30 mV were applied for 300 ms, every 10 seconds. The elicited, maximum outward current values measured during the activating step for each solution exchange period, averaged (n = 3 - 6 for each concentration applied) and plotted as concentration-response curves (see FIG. 32). From these concentration-response curves IC50 values were calculated.
For the testing of Kv1.1 and Kv1.3, CHO-S expressing huKv1.1 (described above) or CHO cells stably expressing huKv1.3 (Charles River Lab) were analysed using the QPatch electrophysiology assay in the presence or absence of the KnotBody fusions. Internal and external physiological solutions were freshly prepared prior to the assay. The extracellular solution contained 145 mM NaCl, 4 mM KC1, 2 mM CaC12, 1 mM MgC12, 10 mM HEPES and 10 mM glucose; the pH was adjusted to 7.4 with NaOH; the osmolarity was ~ 305 mOsm/L. The intracellular solution contained: KF (120 mM), KC1 (20 mM), HEPES (10 mM) EGTA (10 mM); the pH was adjusted to 7.2 with KOH; osmolarity was ~ 300 mOsm/L.
as §1, with “(including previously described” for “(including”, “KB_A12_KTX” for “KB_A12_KTX as previously”, “[…]” for “+30 mV”, “33).” for “32).”, “calculated (see Table E20).” for “calculated.”
For the testing of Kv1.1 and Kv1.3, CHO-S expressing huKv1.1 (see Example 20 and below) or CHO cells stably expressing huKv1.3 (Charles River Lab) were analysed using the QPatch electrophysiology assay in the presence or absence of the KnotBody fusions - see details in Examples 19 and 20.

trypsin = experiment: Phage TRF binding assay on immobilised biotinylated trypsin (monoclonal phage ELISA); settings: EETI-II in 5-3 frame, value in brackets after clone name
Protocol: Phage display technology facilitates isolation of binders to any given target from large combinatorial repertoires based on proteins and peptides that can be presented on the surface of filamentous phage^105. In order to isolate functional knottin-antibody fusions from the KnotBody libraries multiple rounds of phage display selections on trypsin (cognate antigen for the EETI-II donor) were carried out. Phage particles were prepared by rescuing KnotBody libraries using trypsin cleavable helper phage ^102,106Two rounds of phage display selections were performed on 10 µg/ml biotinylated trypsin immobilised on Streptavidin (for Round-1) or Neutravidin (for round-2) coated Maxisorp™ immunotubes (Thermo Scientific, Cat No. 444202). In both rounds of selection, phage libraries were pre-incubated with streptavidin coated paramagnetic beads (Thermo Fisher Scientific, Cat. No. 11205D). These beads were removed prior to the addition the phage to the antigen tubes to limit the streptavidin binders entering the selection. Polyclonal phage preparations from round-2 selection outputs were analysed for trypsin binding using a time resolved fluorescence (TRF) binding assay. In this assay, polyclonal phage binding to biotinylated trypsin immobilised on neutravidin (Thermo Fisher Scientific, Cat. No 31000) coated Maxisorp™ plates (Thermo Scientific, Cat. No. 437111) was detected using a mouse anti-M13 antibody (GE Healthcare, Cat. No. 27-9420-01) followed by europium conjugated anti-mouse antibody (Perkin Elmer, Cat. No. AD0124).
In order to identify monoclonal KnotBodies with desired binding characteristics, 94 individual clones derived from 2 rounds of selection using EETI-II CDR1 or CDR2 libraries were picked into 96 well culture plates and phage were prepared from each clone. Methods for screening by monoclonal phage ELISA are known in the art^107. […] Clones with >3x binding signal above background were picked as positive clones and sequenced to identify unique clones. 14 and 42 unique binders were identified from EETI-II CDR1 and EETI-II CDR2 libraries respectively (Table 1). 18 binders from the EETI-II CDR2 library and 3 binders from the EETI-II-CDR1 library were chosen for further characterisation based on their VL and linker sequence diversity. These binders were assigned new clone identification numbers (Table 2).
The trypsin binding capability of EETI-II is attributed to proline (Pro3) and arginine (Arg4) residues present in its loop1 (GCPRILMRC; SEQ ID NO: 68). […] Monoclonal phage was prepared from the 21 selected clones and their mutant equivalents. […] Replacement of the trypsin-binding residues of EETI-II abolished the ability of all KnotBody clones to bind to trypsin (Table 3). In order to confirm that the loss of trypsin binding was not due to reduced expression or display of pIII fusion phage was prepared from 11 (randomly chosen) KnotBodies and their GlyAla variants were analysed on a western blot using an antibody which recognises the product of gene 3 (pIII) using an anti-pIII antibody (MoBiTec GmbH) (FIG. 6).
Bovine antibodies have been described with natural ultra-long VH CDR3s containing a solvent exposed double stranded antiparallel sheet approximately 20 A° in length (referred to as the stalk) presenting a folded domain stabilised by 3 disulfide bonds (referred to as the Knob)^10. Zhang and colleagues have shown that the Knob domains of these cow ultra-long VH CDR3 antibodies (ULVC-Ab) can be replaced with other folded proteins such as erythropoietin^13. In this example, we assess the ability of a cow ULVC-Ab to present functional knottin fusions on phage in comparison with a KnotBody. In order to create a Knottin-cow UCLA fusion, the sequence between the first and the last cysteines of the knob region of the Cow ULVC-Ab BLV1H12 was replaced with the sequence of the trypsin binding knottin; EETI-II (EETI-II cow ULVC-Ab). A gene fragment encoding this construct was synthesised (Integrated DNA technologies, Table 21). […]

T1 sequence (P22001 whole entry): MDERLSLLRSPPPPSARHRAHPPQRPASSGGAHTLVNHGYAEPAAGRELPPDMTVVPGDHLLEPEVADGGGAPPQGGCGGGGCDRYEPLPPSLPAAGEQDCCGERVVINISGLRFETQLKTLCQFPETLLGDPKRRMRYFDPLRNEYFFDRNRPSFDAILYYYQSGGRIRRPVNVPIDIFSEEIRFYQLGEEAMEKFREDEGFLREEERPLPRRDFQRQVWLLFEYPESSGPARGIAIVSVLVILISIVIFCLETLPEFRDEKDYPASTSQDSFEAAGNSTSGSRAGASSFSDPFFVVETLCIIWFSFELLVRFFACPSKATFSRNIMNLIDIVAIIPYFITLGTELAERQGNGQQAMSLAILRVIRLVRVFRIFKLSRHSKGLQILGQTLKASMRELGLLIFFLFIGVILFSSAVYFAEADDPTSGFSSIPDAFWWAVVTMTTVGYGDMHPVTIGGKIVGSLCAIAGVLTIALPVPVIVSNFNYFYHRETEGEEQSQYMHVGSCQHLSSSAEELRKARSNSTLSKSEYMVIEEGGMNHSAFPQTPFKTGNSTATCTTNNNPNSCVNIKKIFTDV

B1: KB_A07_HsTx1 (antibody, V domains shown)
VH: EVQLVESGGGLVRPGGSLRLSCAASGFTFSSYAMSWVRQAPGKGLEWVSAISGSGGSTYYADSVKGRFTISRDNTKNSLYLQMTSLRADDTAFYYCVKDFGPGYGTGWFDYWGPGTLVTVSS
VL: DIQMTQSPSSLSASVGDRVTITCRASQSISSYLNWYQQKPGKAPKLLIYAAGVASCRTPKDCADPCRKETGCPYGKCMNRKCKCNRCSRSGVPSRFSGSGSGTDFTLTISSLQPEDFATYYCQQGASPPYTFGQGTKVEIKR
Human Kv1.3 (huKv1.3)
  IC50: 4.7 nM

B2: KB_A12_ADWX1: ADWX-1 in VL CDR2 of KB_A12, IgG (antibody, V domains shown)
VH: B1 VH
VL: QSVLTQPPSVSEAPRQRVTITCSGSSSNIGNNAVNWYQQLPGKAPKLLIYAAGRVGINVKCKHSRQCLKPCKDAGMRFGKCTNGKCHCTPKANSGVSDRFSAAKSGTSASLAINGLRSEDEADYYCAAWDDSLNGYVFGTGTKLTVLG
Human Kv1.3 (huKv1.3)
  IC50: 270 nM

B3: F03: KnotBody with alternative 5-3 framing of EETI-II, VL CDR2 (protein)
chain: QSVLTQPPSVSEAPRQRVTITCSGSSSNIGNNAVNWYQQLPGRAPKLLIYAAGGCGPNGFCGSGGDGGVCPRILMRCKQDSDCLAGCGAHSGIPERFSGSKSGTSASLAISGLRSEDEADYYCAAWDDSLNGWVFGGGTKVTVLGQP
modifications: F03 (67972)
notes: KnotBody with alternative 5-3 framing of EETI-II, VL CDR2
trypsin
  ELISA signal from monoclonal phage ELISA: F03 (67972)

B4: F07: KnotBody with alternative 5-3 framing of EETI-II, VL CDR2 (protein)
chain: QSVLTQPPSVSEAPRQRVTITCSGSSSNIGNNAVNWYQQLPGKAPKLLIYAAGGCGPNGFCGSGSDGGVCPRILMRCKQDSDCLAGCGGQSGVPDRFSGSKSGTSASLAISRLQSEDEADYYCAAWDDSLNAYVFGTGTKVTVLGQP
modifications: F07 (72824)
notes: as for B3
trypsin
  ELISA signal from monoclonal phage ELISA: F07 (72824)

B5: E05: KnotBody with alternative 5-3 framing of EETI-II, VL CDR2 (protein)
chain: B4 chain with G89A, V93I, D95E, R112G, D120H, A132G
modifications: E05 (118631)
notes: as for B3
trypsin
  ELISA signal from monoclonal phage ELISA: E05 (118631)

B6: E01: KnotBody with alternative 5-3 framing of EETI-II, VL CDR2 (protein)
chain: B4 chain with G89I, Q90H, P94S, G99D, R112G, A132G, V141L
modifications: E01 (127988)
notes: as for B3
trypsin
  ELISA signal from monoclonal phage ELISA: E01 (127988)

B7: E08: KnotBody with alternative 5-3 framing of EETI-II, VL CDR2 (protein)
chain: B4 chain with G89I, V93I, D95E, R112G, Q114R, S129N, N131S, A132G, V141L
modifications: E08 (121047)
notes: as for B3
trypsin
  ELISA signal from monoclonal phage ELISA: E08 (121047)

B8: E09: KnotBody with alternative 5-3 framing of EETI-II, VL CDR2 (protein)
chain: B4 chain with G89T, V93I, D95E, R112G, Q114R, N131R, K140Q, V141L
modifications: E09 (70274)
notes: as for B3
trypsin
  ELISA signal from monoclonal phage ELISA: E09 (70274)

B9: C09: KnotBody with alternative 5-3 framing of EETI-II, VL CDR1 (protein)
chain: QSVLTQPPSVSEAPRQRVTITCGGKRCGPNGFCGSGSDGGVCPRILMRCKQDSDCLAGCTSNWYQQKPGQAPVLVVQDDSVRPSGIPERFSGSNSGNTATLTISRVEAGDGADYYCQVWDISSDLGVFGGGTKLTVLGQP
modifications: C09 (9820)
notes: KnotBody with alternative 5-3 framing of EETI-II, VL CDR1
trypsin
  ELISA signal from monoclonal phage ELISA: C09 (9820)

B10: E03: KnotBody with alternative 5-3 framing of EETI-II, VL CDR2 (protein)
chain: QSVLTQPPSVSEAPRQRVTITCSGSSSNIGNNAVNWYQQLPGKAPKLLIYAAGGCGPNGFCGSGSDGGVCPRILMRCKQDSDCLAGCGRNSGIPERFSGSKSGHTATLTISRVEAGDEADYYCQVWDSSSDHVLFGGGTKLTVLGQP
modifications: E03 (82495)
notes: as for B3
trypsin
  ELISA signal from monoclonal phage ELISA: E03 (82495)

B11: F01: KnotBody with alternative 5-3 framing of EETI-II, VL CDR2 (protein)
chain: DIQMTQSPSSLSASVGDRVTITCRASQSISSYLNWYQQKPGKAPKLLIDAAGECGPNGFCGSGSDGGVCPRINMRCKQDSDCLAGCGRDSGVPSRFSGSGSGTDFTLTISSLQPEDFATYYCQQSYSTPWTFGQGTKVEIKRT
modifications: F01 (101798)
notes: as for B3
trypsin
  ELISA signal from monoclonal phage ELISA: F01
